Source: patent CN117586402A (HEFEI TIANGANG IMMUNOLOGY PHARMACEUTICAL CO LTD, dated 2024)

Target: T1, NKp80 on human primary T cells and NK cells (人PBMC中CD3+ T细胞和CD56+ NK细胞) (人 (human), UniProt Q9NZS2 1-231)
T1 construct: whole, on cells; also called 人原代T细胞和NK细胞
T1 sequence (looked up): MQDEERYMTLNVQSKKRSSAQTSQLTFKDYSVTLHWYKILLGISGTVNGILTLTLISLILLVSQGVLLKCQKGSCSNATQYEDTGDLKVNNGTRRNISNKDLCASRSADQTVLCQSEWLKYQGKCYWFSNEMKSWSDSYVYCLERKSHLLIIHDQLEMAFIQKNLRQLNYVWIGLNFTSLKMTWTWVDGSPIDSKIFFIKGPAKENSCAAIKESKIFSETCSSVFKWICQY
Experiment: flow cytometry on human PBMC, CD3+ cells

binding result: binds
B1: 嵌合NKp80抗体(53G7) (antibody, human IgG1, V domains shown)
VH: EVQLQQSGPELVNPGASVKISCKTSGYTFTDYYMNWVKQSHGKSLEWIGDIHPNNGGTSYNQKFKGKATLTVDKSSSTAYMELRSLTSEDSAVYYCARDYGGTYTNWAQNYFDYWGQGTTLTVSS
VL: DIVQTQSPASLAVSLGQRATISCRASQSVSTPSYSYMHWYQQKPGQPPKLLIKYASNLESGVPARFSGSGSGTDFTLNIHPVEEEDTATYYCQHSWEIPWTFGGGTKLEIKA
notes: also called 53G7抗体; 抗人NKp80抗体53G7
